Experimental data reported in US20210386837A1, “ACTIVE LOW MOLECULAR WEIGHT VARIANTS OF ANGIOTENSIN CONVERTING ENZYME 2 (ACE2) FOR THE TREATMENT OF DISEASES AND CONDITIONS OF THE EYE” (Northwestern University, priority 2020, published 2021).
Entries after “also recorded” stand apart in the source; their conditions may differ.

Columns and labels:
Angiotensin II [1] = assay: enzymatic activity of ACE2 truncates; type: biochemical
Angiotensin II [2] = conditions: as disclosed in U.S. Pat. No. 10,443,049; cited from earlier work
hTCEpi cells = assay: RT-qPCR of inflammation-related genes in siACE2-transfected hTCEpi cells treated with losartan; type: cell-based; conditions: 100 μM losartan, 24 hours
Description: To examine if ACE2 deficiency-induced cytokine production is due to an increase in AngII activity, we investigated whether treatment of corneal epithelial cells with the AngII type 1 receptor (AT1R) antagonist, losartan could rescue the phenotype. hTCEpi deficient in ACE2 were treated with 100 μm losartan for 24 hrs and the cytokine response was evaluated.
Immortalized corneal epithelial cells, hTCEpi, were cultured in keratinocyte serum free media (Thermo Fisher Scientific, Waltham, Mass., USA) as described before^39. For siRNA knock-down experiments, cells were transfected with 10 nM siRNA SMARTpools against ACE2 and non-target control (GE Dharmacon, Colorado, USA) as previously described^37. Two days after transfection, cells were treated with losartan (100 μM) for 24 hours, and processed for total RNA isolation.
Total RNAs were isolated from hTCEpi cells and purified with a miRNeasy kit (Qiagen, Hilden, Germany). Real-time qPCR (RT-qPCR) was performed with a Roche LightCycler 96 System using the Roche FastStart Essential DNA Green Master (Roche, Branchburg, N.J., USA) according to the manufacturer's instructions.
Unpaired t-test were performed to determine statistical significance. The data are shown as means±standard deviation (SD). The differences were considered significant for p values of <0.05. All experiments were replicated at least three times.

[3] = duration of action in vivo after one injection (enzymatic activity in plasma, blood pressure); conditions: determined by enzymatic activity in plasma and by biologic response (blood pressure)
[4] = anti-ACE2 immunofluorescence of cornea of ACE2-KO mice after NaOH treatment and topical administration; type: in vivo, mouse; conditions: cornea treated with NaOH for 30 s, then topical administration
Description: The corneas of ACE2-KO mice were treated with NaOH for 30 s and then were topically administered ACE2 1-618-ABD. The cornea were subjected to immunofluorescence using anti-ACE2 antibodies. (See FIG. 13).

[5] = ACE2 activity in eyes of ACE2-knockout mice after topical corneal application; type: in vivo, mouse; conditions: ACE2-KO mice, after one hour; for ACE2 activity in eyes: topical to cornea, 5 μg/μl in PBS or in 0.5% DMSO in PBS, vs untreated
Description: ACE2 activity was assessed in eyes isolated from ACE2-deficient mice.

Q: With “1-522: ACE2 truncate, amino acids 1-522, not enzymatically active [Group 1-522]” as the molecule, how does the “enzyme activity of ACE2 truncate” value (Angiotensin II [1]) read?
A: Its value is “not active”.

Q: What does the source list for “1-605: ACE2 truncate, amino acids 1-605, C-terminal deletion relative to SEQ ID NO:1 [Group 1-605]”?
A: enzyme activity of ACE2 truncate (Angiotensin II [1]): enzymatically active; enzymatic activity of ACE2 fragment (Angiotensin II [2]): very high enzymatic activity

Q: With “1-618: ACE2 truncate, human ACE2 amino acids 1-618 [Group 1-618]” as the molecule, how does the “enzyme activity of ACE2 truncate” value (Angiotensin II [1]) read?
A: Its value is “enzymatically active”.

Q: With “1-619: ACE2 truncate, amino acids 1-619, C-terminal deletion relative to SEQ ID NO:1 [Group 1-619]” as the molecule, how does the “enzyme activity of ACE2 truncate” value (Angiotensin II [1]) read?
A: Its value is “enzymatically active”.

Q: What about the “enzymatic activity of ACE2 fragment” value (Angiotensin II [2]) of the same molecule?
A: Its value is “very high enzymatic activity”.

Q: With `CCCCc1nc(Cl)c(CO)n1Cc1ccc(-c2ccccc2-c2nn[nH]n2)cc1` [losartan] as the molecule, how does the “pro-inflammatory activity / cytokine storm-like phenotype in ACE2 depleted corneal epithelial cells” value (hTCEpi cells) read?
A: Its value is “partially rescued”.

Q: What about the “expression of CCL2” value (hTCEpi cells; RT-qPCR) of the same molecule?
A: Its value is “decreased; also recorded: significantly blocked”.

Q: What about the “expression of CXCL8” value (hTCEpi cells; RT-qPCR) of the same molecule?
A: The value was “only slightly altered”.

Q: And the “expression of IL1B” value (hTCEpi cells; RT-qPCR)?
A: Its value is “only slightly altered”.

Q: And the “expression of ILIA” value (hTCEpi cells; RT-qPCR)?
A: Its value is “decreased; also recorded: significantly blocked”.

Q: What about the “expression of TNFA” value (hTCEpi cells; RT-qPCR) of the same molecule?
A: The value was “decreased; also recorded: significantly blocked”.

Q: And the “pro-inflammatory activity / cytokine storm-like phenotype in ACE2 depleted corneal epithelial cells” value (hTCEpi cells; listed as Losartan)?
A: Its value is “partially reverse”.

Q: Which “duration of action of one injection” value [3] does the source give for “ACE2 1-618ABD: human ACE2 amino acids 1-618 fused to albumin binding domain (ABDCon) via a GS4 linker” here?
A: The value was “at least 4 days”.

Q: What about the “ACE2 staining by immunofluorescence in the cornea” value [4] of the same molecule?
A: The value was “Appearance of ACE2 staining”.

Q: What about the “effect of DMSO on detectable ACE2 activity in eyes” value ([5]; 5 μg/μl in 0.5% DMSO in PBS vs in PBS) of the same molecule?
A: Its value is “enhance detectable ACE2 activity”.

Q: What about the “ACE2 activity in eyes” value [5] of the same molecule?
A: The value was “Detectable ACE2 activity was observed”.

Q: And the “ACE2 activity in eyes” value ([5]; listed as hr ACE2 1-618ABD)?
A: The value was “Recovery of ACE2 activity”.
